Measurements: patent US20240352093A1, “PEPTIDE AND GELATIN HYBRID HYDROGELS AS ECONOMICAL ALTERNATIVES TO COMMON BASEMENT-MEMBRANE MATRICES” (AGENCY FOR SCIENCE, TECHNOLOGY AND RESEARCH, priority 2021, published 2024)
No end group written: not given here.

Assays:
[1] = Transparency and clarity of hydrogels (tube images, light microscopy); type: physicochemical; conditions: SW480 spheroids Day 7 (FIG. 13)
Method: IVK8 was dissolved in 300 mM sucrose sterile solution at a peptide concentration of 1.0% wt/vol. and stored at 4° C. until required. The peptide remains a solution at cold conditions (4° C. or ice bath). Gelatin was dissolved using sterile DI water at 60 mg/ml at 60° C. To form the hydrogel, gelatin was removed from the warm water bath and the cold IVK8 solution was added to the gelatin. DMEM was then added to this mixture at a volume ratio of 3:7 DMEM: mixture and was left to stand at 37° C. for 10 min for gelation to occur. The procedure for preparing IVK8 hydrogels was the same. Once formed, the gels remain stable at temperatures between 25 to 37° C. Similarly, the other peptide/gelatin hydrogels may be prepared by the same method described for IVK8, further detail and modifications of the general procedure may be found in WO2021015675. For example. IIK8, ILK8, IVK12, and IIK12 may be used instead of IVK8 to prepare the peptide/gelatin hydrogel. It may be observed from FIGS. 10A to 10 that shorter peptides result in clearer hydrogels. […] The high opacity of IVK12_0.25%/Gelatin_3% (FIG. 11D) and IIK12_0.25%/Gelatin_3% (FIG. 11E) may make them less suitable for 3D culture of tumor spheroid due to difficulties in observing the spheroids.

[2] = system: SW480 tumor spheroids; test: Cell viability (MTS) of SW480 tumor spheroids cultured in hydrogels; type: cell-based, human; conditions: Day 7; hybrid hydrogels peptide_0.25%/G_3% (FIG. 12B)
Method: Human hepatocellular carcinoma HepG2 and human colorectal adenocarcinoma SW480 were cultivated in Dulbecco's Modified Eagle Medium (DMEM), supplemented by 10% Fetal Bovine Serum and 1% Penicillin, incubated at 37° C., 5% CO2. To prepare the tumor spheroids, 200 μL of cell suspension (3500 cells/mL) were seeded per well onto 96-well ultralow adhesion round bottom plates (Corning, U.S.A.). After which, the plate was centrifuged for 5 min at 1500 rpm) and incubated at 37° C. for 2-3 days for the cells to assemble into tumor spheroids. The IVK8/gelatin hydrogels were then prepared according to the steps in Section 2.2 and was used right after mixing the peptide and gelatin together. A positive control group was set up using the basement membrane product, Geltrex™ (Thermofisher, U.S.A.). Geltrex was kept in an ice bath during the experiment. The hydrogels were transferred to the tumor spheroids by first removing 150 μL of the spent medium. Subsequently, 70 μL of the hydrogels were added per well and the samples and incubated at 37° C. for 30 min before 100 μL were added to each well. The spent medium was replaced once every 2 to 3 days by removing 80 μL medium and adding 80 μL fresh medium. The growth of the tumor spheroids was monitored over time using DMil inverted light microscope (Leica, U.S.A.).
The viability of tumor spheroids cultured in the hydrogels for 7 days was determined by the CellTiter 96 AQueous One Solution Cell Proliferation Assay (MTS) (Promega, U.S.A.). Briefly, 80 μL of the spent medium was removed from each well containing the tumor spheroids. Next, 80 μL containing DMEM: MTS at 1:1 volume ratio was then added back into the wells. The plate was then incubated at 37° C. for 4.5 h. After which, the medium was pipetted several times to break up any aggregates that may be present and 100 μL of this solution was transferred to a fresh 96 well plate. The absorbance of the samples was measured at wavelength 490 nm using a microplate reader (Tecan, Switzerland).

[3] = Water retention of IVK8 peptide hydrogel; type: physicochemical; conditions: peptide hydrogel in water at high concentrations
[4] = Gelation time by vial tilting method; type: physicochemical; conditions: 2% wt/vol.
Method: Vial tilting method was applied to determine the gelation time of the hydrogels. […] Rheology experiments were performed on a control-strain rheometer (ARES G2, TA instruments), as described previously. Briefly, a parallel plate measuring geometry (8 mm diameter, gap 1 mm) with oscillatory strain of 1% and the dynamic storage modulus (G′) and loss modulus (G″) were examined as a function of frequency from 1 to 100 rad/s. In addition, a flow sweep to study the viscosity changes as a function of shear rate of hydrogel samples.

| Sequence | opacity of peptide/gelatin hybrid hydrogel in spheroid culture [1] | cell viability of SW480 tumor spheroids compared to Geltrex [2] | water retention [3] | gelation time ([4]; 37° C.) | gelation time ([4]; room temperature (23-24° C.)) |
| --- | --- | --- | --- | --- | --- |
| IRVKIEVEIRVK (IRVKIEVEIRVK-NH2) [IVK12, self-assembling peptide] | most opaque | significantly lower viability |  |  |  |
| IEIEIRIK (IEIEIRIK-NH2) [IIK8, self-assembling peptide] | least opaque | no significant difference |  |  |  |
| IRIKIEIEIRIK (IRIKIEIEIRIK-NH2) [IIK12, self-assembling peptide] | more opaque | significantly lower viability |  |  |  |
| IELEIRLK (IELEIRLK-NH2) [ILK8, self-assembling peptide] | more opaque | no significant difference |  |  |  |
| IEVEIRVK (IEVEIRVK-NH2) [IVK8, self-assembling peptide] | least opaque | no significant difference | ~99% | less than 30 min | ≤ 60 min |
